Results: paper PMC10786891, “Massively parallel profiling of RNA-targeting CRISPR-Cas13d”

T1: EsCas13d, nuclease-dead (Eubacterium siraeum, UniProt B0MS50, R295A;H300A;R849A;H854A)
T1 sequence: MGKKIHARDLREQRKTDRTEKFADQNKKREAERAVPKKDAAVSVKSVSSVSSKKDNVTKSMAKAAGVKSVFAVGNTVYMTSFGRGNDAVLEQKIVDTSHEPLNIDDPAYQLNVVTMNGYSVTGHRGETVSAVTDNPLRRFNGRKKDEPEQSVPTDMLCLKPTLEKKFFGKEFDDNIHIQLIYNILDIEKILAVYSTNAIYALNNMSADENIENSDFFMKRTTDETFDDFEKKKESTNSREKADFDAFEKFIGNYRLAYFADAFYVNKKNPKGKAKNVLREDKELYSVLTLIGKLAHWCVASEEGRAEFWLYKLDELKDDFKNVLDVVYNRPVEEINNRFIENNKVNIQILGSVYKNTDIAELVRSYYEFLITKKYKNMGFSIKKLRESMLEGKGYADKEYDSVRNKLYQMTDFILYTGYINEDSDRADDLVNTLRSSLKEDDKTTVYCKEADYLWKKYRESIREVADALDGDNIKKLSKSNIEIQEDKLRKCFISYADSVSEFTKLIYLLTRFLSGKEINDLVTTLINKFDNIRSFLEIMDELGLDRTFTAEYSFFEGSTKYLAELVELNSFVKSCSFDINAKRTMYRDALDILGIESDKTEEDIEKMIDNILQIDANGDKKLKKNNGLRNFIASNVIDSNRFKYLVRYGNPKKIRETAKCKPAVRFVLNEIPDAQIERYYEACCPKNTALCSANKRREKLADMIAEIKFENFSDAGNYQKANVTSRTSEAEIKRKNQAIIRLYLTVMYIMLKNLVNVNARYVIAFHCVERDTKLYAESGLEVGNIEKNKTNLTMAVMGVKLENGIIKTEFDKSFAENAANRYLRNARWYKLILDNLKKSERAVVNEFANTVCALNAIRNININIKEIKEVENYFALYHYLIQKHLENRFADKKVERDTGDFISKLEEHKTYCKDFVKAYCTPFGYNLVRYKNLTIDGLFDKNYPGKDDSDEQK

B1: target 2 MT 5'PFS GAC 3'PFS CAG (mixed)
RNA 1: CACCCGUGCAAAAUUGCAGGGGUCUAAAACCUUCUCCAAAUUGUUUCAUCCU
RNA 2: GGGAAUGGAUCCACAUCUACGAAUUCGACAGGAUGAAACAAUUUGGAGAAGCAGAGAUCGGAAGAGCACACGU
B2: target 2 MT 5'PFS CGU 3'PFS CCG (mixed)
RNA 1: CACCCGUGCAAAAUUGCAGGGGUCUAAAACCUUCUCCAAAUUGUUUCAUCCU
RNA 2: GGGAAUGGAUCCACAUCUACGAAUUCCGUAGGAUGAAACAAUUUGGAGAAGCCGAGAUCGGAAGAGCACACGU
B3: target 2 MT 5'PFS GGU 3'PFS CCG (mixed)
RNA 1: CACCCGUGCAAAAUUGCAGGGGUCUAAAACCUUCUCCAAAUUGUUUCAUCCU
RNA 2: GGGAAUGGAUCCACAUCUACGAAUUCGGUAGGAUGAAACAAUUUGGAGAAGCCGAGAUCGGAAGAGCACACGU
B4: target 2 MT 5'PFS GAC 3'PFS CAU (mixed)
RNA 1: CACCCGUGCAAAAUUGCAGGGGUCUAAAACCUUCUCCAAAUUGUUUCAUCCU
RNA 2: GGGAAUGGAUCCACAUCUACGAAUUCGACAGGAUGAAACAAUUUGGAGAAGCAUAGAUCGGAAGAGCACACGU
B5: target 2 MT 5'PFS AAG 3'PFS AAA (mixed)
RNA 1: CACCCGUGCAAAAUUGCAGGGGUCUAAAACCUUCUCCAAAUUGUUUCAUCCU
RNA 2: GGGAAUGGAUCCACAUCUACGAAUUCAAGAGGAUGAAACAAUUUGGAGAAGAAAAGAUCGGAAGAGCACACGU
B6: target 2 MT 5'PFS UUG 3'PFS CCA (mixed)
RNA 1: CACCCGUGCAAAAUUGCAGGGGUCUAAAACCUUCUCCAAAUUGUUUCAUCCU
RNA 2: GGGAAUGGAUCCACAUCUACGAAUUCUUGAGGAUGAAACAAUUUGGAGAAGCCAAGAUCGGAAGAGCACACGU
B7: target 2 MT 5'PFS GAG 3'PFS AAA (mixed)
RNA 1: CACCCGUGCAAAAUUGCAGGGGUCUAAAACCUUCUCCAAAUUGUUUCAUCCU
RNA 2: GGGAAUGGAUCCACAUCUACGAAUUCGAGAGGAUGAAACAAUUUGGAGAAGAAAAGAUCGGAAGAGCACACGU
B8: target 2 MT 5'PFS GAG 3'PFS AAG (mixed)
RNA 1: CACCCGUGCAAAAUUGCAGGGGUCUAAAACCUUCUCCAAAUUGUUUCAUCCU
RNA 2: GGGAAUGGAUCCACAUCUACGAAUUCGAGAGGAUGAAACAAUUUGGAGAAGAAGAGAUCGGAAGAGCACACGU
B9: target 2 MT 5'PFS GGU 3'PFS CCA (mixed)
RNA 1: CACCCGUGCAAAAUUGCAGGGGUCUAAAACCUUCUCCAAAUUGUUUCAUCCU
RNA 2: GGGAAUGGAUCCACAUCUACGAAUUCGGUAGGAUGAAACAAUUUGGAGAAGCCAAGAUCGGAAGAGCACACGU
B10: target 2 MT 5'PFS GUC 3'PFS UCC (mixed)
RNA 1: CACCCGUGCAAAAUUGCAGGGGUCUAAAACCUUCUCCAAAUUGUUUCAUCCU
RNA 2: GGGAAUGGAUCCACAUCUACGAAUUCGUCAGGAUGAAACAAUUUGGAGAAGUCCAGAUCGGAAGAGCACACGU
B11: target 2 MT 5'PFS GAG 3'PFS AAC (mixed)
RNA 1: CACCCGUGCAAAAUUGCAGGGGUCUAAAACCUUCUCCAAAUUGUUUCAUCCU
RNA 2: GGGAAUGGAUCCACAUCUACGAAUUCGAGAGGAUGAAACAAUUUGGAGAAGAACAGAUCGGAAGAGCACACGU
B12: target 2 MT 5'PFS GAC 3'PFS CAC (mixed)
RNA 1: CACCCGUGCAAAAUUGCAGGGGUCUAAAACCUUCUCCAAAUUGUUUCAUCCU
RNA 2: GGGAAUGGAUCCACAUCUACGAAUUCGACAGGAUGAAACAAUUUGGAGAAGCACAGAUCGGAAGAGCACACGU
B13: target 2 MT 5'PFS CAG 3'PFS ACU (mixed)
RNA 1: CACCCGUGCAAAAUUGCAGGGGUCUAAAACCUUCUCCAAAUUGUUUCAUCCU
RNA 2: GGGAAUGGAUCCACAUCUACGAAUUCCAGAGGAUGAAACAAUUUGGAGAAGACUAGAUCGGAAGAGCACACGU
B14: target 2 MT 5'PFS GUC 3'PFS UCG (mixed)
RNA 1: CACCCGUGCAAAAUUGCAGGGGUCUAAAACCUUCUCCAAAUUGUUUCAUCCU
RNA 2: GGGAAUGGAUCCACAUCUACGAAUUCGUCAGGAUGAAACAAUUUGGAGAAGUCGAGAUCGGAAGAGCACACGU
B15: target 2 MT 5'PFS AUU 3'PFS AUU (mixed)
RNA 1: CACCCGUGCAAAAUUGCAGGGGUCUAAAACCUUCUCCAAAUUGUUUCAUCCU
RNA 2: GGGAAUGGAUCCACAUCUACGAAUUCAUUAGGAUGAAACAAUUUGGAGAAGAUUAGAUCGGAAGAGCACACGU
B16: target 2 MT 5'PFS AUU 3'PFS ACU (mixed)
RNA 1: CACCCGUGCAAAAUUGCAGGGGUCUAAAACCUUCUCCAAAUUGUUUCAUCCU
RNA 2: GGGAAUGGAUCCACAUCUACGAAUUCAUUAGGAUGAAACAAUUUGGAGAAGACUAGAUCGGAAGAGCACACGU
B17: target 2 MT 5'PFS UUA 3'PFS UAA (mixed)
RNA 1: CACCCGUGCAAAAUUGCAGGGGUCUAAAACCUUCUCCAAAUUGUUUCAUCCU
RNA 2: GGGAAUGGAUCCACAUCUACGAAUUCUUAAGGAUGAAACAAUUUGGAGAAGUAAAGAUCGGAAGAGCACACGU
B18: target 2 MT 5'PFS GUC 3'PFS UCU (mixed)
RNA 1: CACCCGUGCAAAAUUGCAGGGGUCUAAAACCUUCUCCAAAUUGUUUCAUCCU
RNA 2: GGGAAUGGAUCCACAUCUACGAAUUCGUCAGGAUGAAACAAUUUGGAGAAGUCUAGAUCGGAAGAGCACACGU
B19: target 2 MT 5'PFS GAC 3'PFS CAA (mixed)
RNA 1: CACCCGUGCAAAAUUGCAGGGGUCUAAAACCUUCUCCAAAUUGUUUCAUCCU
RNA 2: GGGAAUGGAUCCACAUCUACGAAUUCGACAGGAUGAAACAAUUUGGAGAAGCAAAGAUCGGAAGAGCACACGU
B20: target 2 MT 5'PFS GUC 3'PFS UCA (mixed)
RNA 1: CACCCGUGCAAAAUUGCAGGGGUCUAAAACCUUCUCCAAAUUGUUUCAUCCU
RNA 2: GGGAAUGGAUCCACAUCUACGAAUUCGUCAGGAUGAAACAAUUUGGAGAAGUCAAGAUCGGAAGAGCACACGU
B21: target 2 MT 5'PFS GCG 3'PFS AAA (mixed)
RNA 1: CACCCGUGCAAAAUUGCAGGGGUCUAAAACCUUCUCCAAAUUGUUUCAUCCU
RNA 2: GGGAAUGGAUCCACAUCUACGAAUUCGCGAGGAUGAAACAAUUUGGAGAAGAAAAGAUCGGAAGAGCACACGU
B22: target 1 insU 3' of 20,insC 3' of 19 (mixed)
RNA 1: CACCCGUGCAAAAAUGCAGGGGUCUAAAACUGAGCGGAUAACCUCUCUAUGG
RNA 2: GGGAAUGGAUCCACAUCUACGAAUUCGUACCAUUCAGAGAGGUUAUCCGCUCACCGAGAUCGGAAGAGCACACGU
B23: target 1 U11A,G17U (mixed)
RNA 1: CACCCGUGCAAAAAUGCAGGGGUCUAAAACUGAGCGGAUAACCUCUCUAUGG
RNA 2: GGGAAUGGAUCCACAUCUACGAAUUCGUACCAUAUAGAGGAUAUCCGCUCACCGAGAUCGGAAGAGCACACGU
B24: target 1 insC 3' of 22,insC 3' of 5 (mixed)
RNA 1: CACCCGUGCAAAAAUGCAGGGGUCUAAAACUGAGCGGAUAACCUCUCUAUGG
RNA 2: GGGAAUGGAUCCACAUCUACGAAUUCGUACCCAUAGAGAGGUUAUCCGCCUCACCGAGAUCGGAAGAGCACACGU

Target: T1, EsCas13d, nuclease-dead
Assay: crRNA (strand 1, pre-loaded); Mg2+; 40 mM Tris-HCl pH 7.5, 150 mM NaCl, 6 mM MgCl2, 1 mM DTT, 0.1% Tween-20, 0.2 mg/ml BSA; 25 C; 10 min per concentration, then washed
Conditions: tags: His6-TwinStrep-SUMO cleaved; N-terminal SNAP kept (SNAP-Surface 488); label: 3' end held by stalled T7 RNA polymerase

| Binder | Kd |
| --- | --- |
| B1 | 17 ± 4 nM |
| B2 | ~40 nM |
| B3 | 17.4 ± 1.8 nM |
| B4 | 7.4 ± 1.2 nM |
| B5 | 3.7 ± 0.7 nM |
| B6 | 37 ± 10 nM |
| B7 | 4.1 ± 0.6 nM |
| B8 | 5.6 ± 0.5 nM |
| B9 | 24 ± 5 nM |
| B10 | 42 ± 6 nM |
| B11 | 6.1 ± 1 nM |
| B12 | 12.9 ± 2.4 nM |
| B13 | 6.2 ± 2.2 nM |
| B14 | 28 ± 6 nM |
| B15 | 5.5 ± 0.4 nM |
| B16 | 10.7 ± 1.3 nM |
| B17 | 17 ± 4 nM |
| B18 | 25.4 ± 3.3 nM |
| B19 | 6.2 ± 1.2 nM |
| B20 | 17 ± 5 nM |
| B21 | 9.9 ± 2.3 nM |
| B22 | 50 ± 17 nM |
| B23 | 84 ± 29 nM |
| B24 | 60 ± 30 nM |
